Experimental data taken from the nanobody polyreactivity screen of Harvey et al. (2022).

Assay: yeast display, Sf9 membrane polyspecificity reagent, FACS + sequencing; frameworks hold sequencing errors
Method in brief: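 Sorting gates, low and high (top ~1%), were placed on anti-HA fluorescence to track expression and on streptavidin fluorescence to track reagent binding. A clone's polyreactivity label is taken from the gate it came out of. The reagent was 10% biotinylated, detergent-solubilized Sf9 membrane, applied for 1 hour at 4 °C to galactose-induced yeast display cells.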

Row | Sequence | polyreactivity (PSR sort gate)
1 | QVQLVESGGGLVQAGGSLRLSCAASGFIFRYYAMGWYRQAPGKERELVAAISWSGTRTFYADSVKGRFTISRDNAKNTVYLQMNSLKPEDTAVYYCAAETTGYDSYIQYEYWGQGTQVTVSS | high polyreactivity
2 | QVQLVESGGGLVQAGGSLRLSCAASGFIFRYYAMGWYRQAPGKERELVAAITRGGSTYYADSVKGRFTISRDNAKNTVYLQMNSLKPEDTAVYYCAARLYTQYYYWGQGTQVTVSS | high polyreactivity
3 | QVQLVESGGGLVQAGGSLRLSCAASGFIFRYYAMGWYRQAPGKERELVAGISSSGASTYYADSVKGRFTISRDNAKYTVYLLMNSLKPEDTAVYYCAARRQRDRYGYWGQGTQVTVSS | high polyreactivity
4 | QVQLVESGGGLVQAGGSLRLSCAASGFIFRYYAMGWYRQAPGKERELVARINRSGGSTYYADSVKGRFTISRDNAKNTVYLQMNSLKPEDTAVYYCAKDRTSYYSWYGYWGQGTQVTVSS | high polyreactivity
5 | QVQLVESGGGLVQAGGSLRLSCAASGFIFRYYAMGWYRQAPGKERVLVARITPRGGRTYYADSVKGRFTISRDNAKNTVYLQMNSLKPEDTAVYYCAAVYPVLHEFGYWGQGTQVTVSS | high polyreactivity
6 | QVQLVESGGGLVQAGGSLRLSCAASGFIFRYYAMGWYRQAPGKETELVAAINRGGGTNYADSVKGRFTISRDNAKNTVYLQLNSLKPEDTAVYYCAAVIRTVRERYGYWGQGTQVTVSS | high polyreactivity
7 | QVQLVESGGGLVQAGGSLRLSCAASGFIFRYYDMGWYRQAPGKERELVAAISWRGGRTYYADSVKGRFTISRDNAKNTVYLQMNSLKPEDTAVYYCAAGFSLWTYPKPYGEDYWGQGTQVTVSS | high polyreactivity
8 | QVQLVESGGGLVQAGGSLRLSCAASGFIFRYYTMRWYRQAPGKERELVAVITSGGTTYYADSVKGRFTISRDNAMNTVYLQMNSLKPEDTAVSYCAADYRPRLYGVGVDYWGQGTQVTVSS | low polyreactivity
9 | QVQLVESGGGLVQAGGSLRLSCAASGFIFSDYAMGWYRQAPGKERELVAGISDSGGDTYYADSVKGRFTISRDNAKYTVYFQMYSLKPDDTAVYYCAADVELWVFRGQQYDYWGQGTQVTVSS | low polyreactivity
10 | QVQLVESGGGLVQAGGSLRLSCAASGFIFSFYAMGWYRQAPGKESELVAAITSSGATTYYADSVKGRFTISRDNAKNTVYLQMNSLKPVDTAVYYCNAVYRRDTGYYRYYYWGQGTQVTVSS | high polyreactivity
11 | QVQLVESGGGLVQAGGSLRLSCAASGFIFSIYALGWYRQAPGKERELVAAISKSGGRTYYADSVKGRFTISRDNAKNTVYLQMNSLKPEDTAVYYCAVDSYYKYDYWGQGTQVTVSS | high polyreactivity
12 | QVQLVESGGGLVQAGGSLRLSCAASGFIFSIYAMGLYRQAPGTERELVAGIDNGGGTYYADSVKGRFTISRDNAKNTVYLQMNSLKPEDTAVYYCAADTYSIGELYDYWGQGTQVNVSS | low polyreactivity
13 | QVQLVESGGGLVQAGGSLRLSCAASGFIFSKNAMGWYRQAPGKERELVAAISTRGGSTYYADSVKGRFTISRDNAKNTVYLQMNSLKPEDTAVYYCNKEWYPYKHNYWGQGTQVTVSS | low polyreactivity
14 | QVQLVESGGGLVQAGGSLRLSCAASGFIFSNNAMGWYRQAPGKERELVASISSSSRTYYADSVKGRFTISRDNAKNTVYLQMNSLKPEDTAVYYCAAVFRWWGTRVDYWGQGTQVTVSS | high polyreactivity
15 | QVQLVESGGGLVQAGGSLRLSCAASGFIFSNYAMGWYRQAPGKERELVAAISWSGTRTYYADSVKGRFTISRDNAKNTVYLQMNSLKPEDTAVYYCAAYGVYLYDYWGQGTQVTVSS | low polyreactivity
16 | QVQLVESGGGLVQAGGSLRLSCAASGFIFSQYAMGWYRQAPGKERELVAAISYSGGSTYYADSVKGRFTISRDNAKNTVYLQMNSLKPEDTAVYYCAVSGRSYYRSDYWGQGTQVTVSS | high polyreactivity
17 | QVQLVESGGGLVQAGGSLRLSCAASGFIFSRNAMGWYRQAPGKERELVAVISTRGGSTYYADSVKGRFTISRDNAKNTVYLQMNSLKPEDTAVYYCAARRTRGYEYWGQGTQVTVSS | high polyreactivity
18 | QVQLVESGGGLVQAGGSLRLSCAASGFIFSRNAMGWYRQAPGKERELVDRISRSGGRTYYADSVKGRFTISRDNAKNTVYLQMNSLKPEDTAVYYCATDHVRQSPYDYWGQGTQVTVSS | high polyreactivity
19 | QVQLVESGGGLVQAGGSLRLSCAASGFIFSRNVMGWYRQAPGKERELVAAISRSGGSTYYADSVKGRFTISRDNAKNTVYLQMNSLKPEDTAVYYCAASRINYVYLLKGDYWGQGTQVTVSS | high polyreactivity
20 | QVQLVESGGGLVQAGGSLRLSCAASGFIFSRYAMGWARQAPGKERELVAAIRFSGSMTYYADSVKGRFTISRDTAKNTVYLQMNSLKPEDTAVYYCAAALTYFKRVYYWGQGTQVTVSS | high polyreactivity
21 | QVQLVESGGGLVQAGGSLRLSCAASGFIFSRYAMGWYRQAPGKERELVAYITRRGGRTFYADSVKGRFTISRDNAKNTVYLQMNSLKPEDTAVYYCGADAYGLTLFYVFSYDYWGQGTQVTVSS | high polyreactivity

Row | Sequence | polyreactivity (PSR sort gate)
22 | QVQLVESGGGLVQAGGSLRLSCAASGFIFSRYTMGWYRQAPGKERELVAAISKRGGSTYYADSVKGRFTISRDNAKNTVYLQMNSLKPEDTAVYYCAADRLPSGSLVEYWGQGTQVTVSS | high polyreactivity
23 | QVQLVESGGGLVQAGGSLRLSCAASGFIFSRYTMGWYRQAPGKERELVAAITWSGGSTYYADSVKGRFTISRDNAKNTVYLQMNSLKPVDTAVYYCAAARISVVQGDYWGQGTQVTVSS | high polyreactivity
24 | QVQLVESGGGLVQAGGSLRLSCAASGFIFSSNAMGWYRQAPGKERELVARITWSDGSTYYADSVKGRFTISRDNAKNTVYLQMNSLKPEDTAAYYCAKGRDATHYEYYLYSMDYWGQGTQVTVSS | low polyreactivity
25 | QVQLVESGGGLVQAGGSLRLSCAASGFIFSSYAMGWYIQAPGKERELVAAISRSGGRTYYADSVKGRFTISRDNAKNTVYLKMNSLKPEDTAVYYCAAKWLGTAGDDYWGQGTQVTVSS | high polyreactivity
26 | QVQLVESGGGLVQAGGSLRLSCAASGFIFSSYAMGWYRQAPGKERELVAAITSRGGSTYYADSVKGRFTISRDNAKNTVYLQMNSLKPEDTAVYYCNAVVTKYAKSRFLYYYWGQGTQVTVSS | high polyreactivity
27 | QVQLVESGGGLVQAGGSLRLSCAASGFIFSVYAMGWYRQAPGKERELVAAITGNGVSTYYADSVKGRFTISRDNAKNTVYLQMISLKPEDTAVYSCATYGRRWYSSRRLDYWGQGTQVTVSS | low polyreactivity
28 | QVQLVESGGGLVQAGGSLRLSCAASGFIFSYNVMGWYRQAPGKERELVAAISSGGGRTYYADSVKGRFTISRDNAKNTVYLQMNSLKPEDTAVYYCNAYRLSRVQLYYWGQGTQVTVSS | high polyreactivity
29 | QVQLVESGGGLVQAGGSLRLSCAASGFIFSYYAMGGYRQAPGKERELVAAITSGGSTNYADSVKGRLTISRDNAKNTFYLQMNSLKPEDTAVYYCAAERGDTAYLKYDYCGQGTQVTVSS | low polyreactivity
30 | QVQLVESGGGLVQAGGSLRLSCAASGFIFSYYAMGWYRQAPGKERELVAAISISGGSTYYADSVKGRFTISRDNAKTTVYLQMNSLKPEDTAVYYCNKAPRYPYGGYDYWGQGTQVTVSS | low polyreactivity
31 | QVQLVESGGGLVQAGGSLRLSCAASGFIFSYYAMGWYRQAPGKERELVAAISKTGGNTFYADSVKGRFTISRDNAKNTVYLQMNSLKPEDTGVYYCNALRGDWRDMGYWGQGTQVTVSS | high polyreactivity
32 | QVQLVESGGGLVQAGGSLRLSCAASGFIFSYYAMGWYRQAPGKERELVAAISRSGGSTYYADSVKGRFTISRDNAKNTVYLQMNSLKPEDTAVYYCAARYWRRYGQGYRYDYWGQGTQVTVSS | high polyreactivity
33 | QVQLVESGGGLVQAGGSLRLSCAASGFIFSYYAMGWYRQAPGKERELVAAITWDGGSTYYADSVKGRFTISRDYANNTVYLLLNSLKPEDTAVYYCNAYYYYRRPLEGGYWGQGNQVTVSS | low polyreactivity
34 | QVQLVESGGGLVQAGGSLRLSCAASGFIFSYYAMGWYRQAPGKERELVAGITRSGGSTYYADSVKGRFTISRDNAKNTVYLQMNSLKPEDTAVYYCAAGYFYHFSRYTNRYGYWGQGTQVTVSS | high polyreactivity
35 | QVQLVESGGGLVQAGGSLRLSCAASGFIFSYYAMGWYRQAPGKEREWVAAISKTGGNTYYADSVKGRFTISRDNAKKTVYLQMNSLKPEDTAVYYCNALRGDWRDMGYCGQGTQVTVSS | high polyreactivity
36 | QVQLVESGGGLVQAGGSLRLSCAASGFIFSYYAMVWYRQAPGTERELVAAISSSGSRTYYADSVKGRFTISRDNAKNTVYLQMNSLKPEDTAVYYCAARGAAKYGYWGQGTQVTVSS | high polyreactivity
37 | QVQLVESGGGLVQAGGSLRLSCAASGFIFTDNAMGRYRHAPRTERELVAAINLSGTRTYYADSVKGRFTISRDNAKNTVYLQMNSLKPEDTAVYYCNKSEDYTYDYWGQGTQVTVSS | low polyreactivity
38 | QVQLVESGGGLVQAGGSLRLSCAASGFIFTDYAMGWYRQAPGKEREFVAAIDWSGGNTYYADSVKGRFTISRDHAKNTVYLQMNRLKPEDTAVYYCNAGDYFVRFVYYWDDERYDYWGQGTQVTVSS | low polyreactivity
39 | QVQLVESGGGLVQAGGSLRLSCAASGFIFTFYAMGWYRQAPGKEREFVASIDWGDGSTYYADSVKGRFTISRDNAKNTVYLQMNSLKPEDTAVYYCATDVYFLSSEYWGQGTQVTVSS | low polyreactivity
40 | QVQLVESGGGLVQAGGSLRLSCAASGFIFTGNAMGWYRQAPGKERELVAAISKRGGRTYYADSVKGRFTISRDNAKNTVYLQMNSLKPEDTAVYYCAAVGYAYTYAEYYYWGQGTQVTVSS | high polyreactivity
41 | QVQLVESGGGLVQAGGSLRLSCAASGFIFTGNAMGWYRQAPGKERELVAAITGRGSTYYADSVKGRFTISRDNGKNSVYLQMNSLKPEDTAVYYCAAKRWWQYYWGQGTQVTVSS | high polyreactivity
